Results reported in patent US20240352100A1 (AJOU UNIVERSITY INDUSTRY ACADEMIC COOPERATION FOUNDATION, published 2024).
Where a chain is given by its changes, count along the chain named. Blank lines part the entries; values can stand above or below the molecule they belong to.

How the values were obtained:
[1] = biological target: β-catenin (endogenous, in colon cancer cell lines) (human) (UniProt P35222); test: cell-based or functional assay
[2] = biological target: T1, His8-Avi-tag-β-catenin (recombinant, biotinylated, from E. coli) (human, UniProt P35222 1-781, limits assumed, biotinylated (Avi-tag, co-expressed with pBirAcm in the presence of D-Biotin)); test: BLI (Octet QKe): antibody captured on AHC sensor, β-catenin at 200, 100, 50, 25, 12.5 nM, 1:1 binding model
T1 construct: also called purified β-catenin; recombinant antigen protein β-catenin; not shown: His8-Avi tag
T1 sequence (looked up): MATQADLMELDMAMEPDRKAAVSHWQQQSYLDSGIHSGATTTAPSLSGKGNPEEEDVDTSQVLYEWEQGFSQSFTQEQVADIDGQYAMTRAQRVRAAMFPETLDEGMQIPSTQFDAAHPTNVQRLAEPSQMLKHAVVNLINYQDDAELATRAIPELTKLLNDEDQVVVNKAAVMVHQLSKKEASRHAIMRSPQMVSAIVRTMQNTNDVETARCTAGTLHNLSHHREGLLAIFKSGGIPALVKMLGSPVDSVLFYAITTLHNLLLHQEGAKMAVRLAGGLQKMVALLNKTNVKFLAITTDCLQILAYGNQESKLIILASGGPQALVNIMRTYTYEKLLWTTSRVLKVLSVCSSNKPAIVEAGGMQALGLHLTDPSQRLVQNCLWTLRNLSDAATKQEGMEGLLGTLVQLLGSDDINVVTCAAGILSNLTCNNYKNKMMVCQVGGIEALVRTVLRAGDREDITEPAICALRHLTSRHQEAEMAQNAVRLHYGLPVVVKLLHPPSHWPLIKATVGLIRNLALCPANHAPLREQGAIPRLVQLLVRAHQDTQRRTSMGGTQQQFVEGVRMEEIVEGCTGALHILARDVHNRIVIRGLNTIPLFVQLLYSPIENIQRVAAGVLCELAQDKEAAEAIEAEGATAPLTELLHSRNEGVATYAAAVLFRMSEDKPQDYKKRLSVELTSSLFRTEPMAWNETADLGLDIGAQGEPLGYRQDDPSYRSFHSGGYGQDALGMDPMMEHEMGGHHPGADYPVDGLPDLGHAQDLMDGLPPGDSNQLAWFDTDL

[3] = biological target: T1, His8-Avi-tag-β-catenin (recombinant, …); test: BLI (Octet QKe), antibody captured on AHC sensor, β-catenin 200-12.5 nM, 1:1 model

Molecule: inBC2-(G5)-VHL152-213 (antibody)
- β-catenin degradation activity (Western blot, HCT116, 2 µM, 12 h) [1]: 5%

Molecule: inBC2-SOCS2153-198 (antibody)
- β-catenin degradation ability (Western blot, three colon cancer cell lines) [1]: 40%
- β-catenin degradation ability compared to inBC2-VHL152-213 (Western blot) (% higher than inBC2-VHL152-213) [1]: 20

B1: inBC0 (antibody, V domains shown)
VH: QVQLVESGGGVVQPGRSLRLSCAASGFTFSSYPMHWVRQAPGKGLEWVAVVSYDGSYKYYADSVKGRLTISRDNSKNTLYLQMNSLRAEDTAVYYCARATVRGVTKIRGVFDSWGRGALVTVSS
VL: DYQLTQSPSSLSASVGDRVTITCKSSQSLLNSRDGKNYLAWYQQKPGKAPKMLIYWASTRESGVPSRFSGSGSGTDFTLTISSLQPEDFATYFCQQYWYWMFTFGQGTKVEIKR
notes: Complete immunoglobulin made by putting the anti-β-catenin VH into inRas37; also called anti-β-catenin cytosol-penetrating interfering antibody inBC0
- koff [2]: 0.000233 s⁻¹
- kon [2]: 40500 M⁻¹ s⁻¹
- Kd [3]: 5.75 nM

Second part, the molecule after the results:

- β-catenin degradation activity (Western blot, HCT116, 2 µM, 12 h) [1]: 25%
Molecule: inBC2-(A6)-VHL152-213 (antibody)

- β-catenin degradation activity (Western blot, HCT116, 2 µM, 12 h) [1]: 8%
Molecule: inBC2-(G10)-VHL152-213 (antibody)

- decrease in the amount of β-catenin (Western blot, HCT116, with or without MLN4924 or Bortezomib) [1]: 30%
- β-catenin degradation activity (Western blot, DLD-1, 2 µM, 12 h) [1]: 15%
- β-catenin degradation activity (Western blot, HCT116, 2 µM, 12 h) [1]: 36%
- β-catenin degradation activity (Western blot, SW480, DLD-1, HCT116) [1]: 20%
- β-catenin degradation activity over time (Western blot, DLD-1, 2 µM) [1]: 25%
Molecule: inBC2-VHL152-213 (antibody)

- koff [2]: 0.000219 s⁻¹
- kon [2]: 44600 M⁻¹ s⁻¹
- Kd [3]: 4.92 nM
B2: inBC2 (antibody, V domains shown)
VH: B1 VH with R116Q, A118T
VL: B1 VL
notes: Complete immunoglobulin; FR4 back-mutated form of inBC0; also called anti-β-catenin cytosol-penetrating interfering antibody inBC2; anti-β-catenin iMab
